How the values were obtained:
MS2 coat protein [1] = experiment: apparent KD of MS2 coat protein, switch ON state; designed switch direction (-1 OFF switch, 1 ON switch): -1; higher = weaker reporter binding; conditions: FMN input: 0 or 200 uM; Eterna round: R93 (includes R88 designs)
Method in brief: (§1)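 Each design's apparent KD comes from the median of binding-curve fits to its normalised clusters. Those clusters carried RNA switches transcribed on-chip from Illumina sequencing clusters. SNAP-549-labelled MS2 coat protein was titrated onto them in twofold steps (0.7 or 1.5 nM to 3 µM; per step 0.8–1.5 h down to 10–20 min). Conditions were 100 mM Tris-HCl pH 7.5, 80 mM KCl, 4 mM MgCl2, without or with constant ligand.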

MS2 coat protein [2] = experiment: apparent KD of MS2 coat protein, switch OFF state (with FMN for OFF switches, without FMN for ON switches); designed switch direction (-1 OFF switch, 1 ON switch): -1; higher = weaker reporter binding; conditions: FMN input: 0 or 200 uM; Eterna round: R93 (includes R88 designs)
Method in brief: as §1

## AACAUGUUAGGAUAUUGAAGAAAAGAAAAGAAAGAAAAGAACAAGAAGGAACAUGAGGAUCACCCAUGUAAGAA [EteRNA is fun!]
MS2 coat protein [1]
  apparent KD of MS2 coat protein: 25 nM
MS2 coat protein [2]
  apparent KD of MS2 coat protein: 17.2 nM

## AAGAAUGGAGGAUAUACAUGAGGAUCACCCAUGUAAAAGAAAGAGGGAAAAGAGAAAAGUAGAAGGCCAAAGAA [Ptolemy VII Neos Philopator]
MS2 coat protein [1]
  apparent KD of MS2 coat protein: 36 nM
MS2 coat protein [2]
  apparent KD of MS2 coat protein: 34.4 nM

## UAAAAACAUGAGGAUCACCCAUGUGAGGAUAUACGAAAGUAGAAGGCACUAAAAUAAAAUAGAAGGAUAAAAUA [Meechl Ex1 R2 m1]
MS2 coat protein [1]
  apparent KD of MS2 coat protein: 23.2 nM
MS2 coat protein [2]
  apparent KD of MS2 coat protein: 37.5 nM

## AGCUAGUCAGGAUAUACAAACAUGUCAAAAGACGUGAAGAAACAUGAGGAUCACCCAUGUAGAAGGGACUAGCA [Mat - Exclusion 2 - JL mod - D16]
MS2 coat protein [1]
  apparent KD of MS2 coat protein: 19.9 nM
MS2 coat protein [2]
  apparent KD of MS2 coat protein: 14.5 nM

## AAAUAGUUAGGAUAUACAUGAGGAUCACCCAUGUGCACGUAUGGAGAAUAUGGUAAUGGUAGAAGGGACUAAAA [EX2 Malc#21]
MS2 coat protein [1]
  apparent KD of MS2 coat protein: 44.5 nM
MS2 coat protein [2]
  apparent KD of MS2 coat protein: 76.5 nM

## AAGGGACAUGAGGAUCACCCAUGUAAGGAUAUCGGAAAAGGAAAAAAAAAAAAUAAGACGAGAAGGUACAAAAA [Mat - Exclusion 1 - Eli mod - D80]
MS2 coat protein [1]
  apparent KD of MS2 coat protein: 70.2 nM
MS2 coat protein [2]
  apparent KD of MS2 coat protein: 73.5 nM

## GGGUGGCGAGGAUAUACAUGAGGAUCACCCAUGUGAGAGAAAAAAGUGAGAAAGAAAAGUAGAAGGCGCUGCCG [salish99-ex3-56]
MS2 coat protein [1]
  apparent KD of MS2 coat protein: 47.9 nM
MS2 coat protein [2]
  apparent KD of MS2 coat protein: 329 nM

## AAAAAUUGAGGAUAUACGAACAUGUCGAAAGACGUGAAGGGACAUGAGGAUCACCCAUGUAGAAGGCGAAAAAA [Mat - Exclusion 2 - JL mod - D68]
MS2 coat protein [1]
  apparent KD of MS2 coat protein: 33.7 nM
MS2 coat protein [2]
  apparent KD of MS2 coat protein: 20.7 nM

## AACAGUACAGGAUAUACAUGAGGAUCACCCAUGUGGGAAUUAAGUGGCGUACCACAAAGUAGAAGGGUACUGGA [Moding Maslow revisited (73)]
MS2 coat protein [1]
  apparent KD of MS2 coat protein: 72.5 nM
MS2 coat protein [2]
  apparent KD of MS2 coat protein: 172 nM

## AAAGGCUUAGGAUAUACAGUGGUCCCAAUGGGCAUCCGAAAACAUGAGGAUCACCCAUGUAGAAGGAAGAAAAU [Raleor]
MS2 coat protein [1]
  apparent KD of MS2 coat protein: 68.5 nM
MS2 coat protein [2]
  apparent KD of MS2 coat protein: 64.7 nM

## AAGAAUCGAGGAUAUACAUGAGGAUCACCCAUGUAAAAGAAAGAAAGGGAAAAGAAAAGUAGAAGGCGAAAGAA [Usermaatre-setepenre Shoshenq III]
MS2 coat protein [1]
  apparent KD of MS2 coat protein: 23.4 nM
MS2 coat protein [2]
  apparent KD of MS2 coat protein: 23.6 nM

## AAAGGAUCAGGAUAUGUGUGGAAAAAGUGUAUCCGAAAAAAACAUGAGGAUCACCCAUGUAGAAGGGAUCCAAA [Mod 3 of Normal (20/19) by Nando, Round 1]
MS2 coat protein [1]
  apparent KD of MS2 coat protein: 182 nM
MS2 coat protein [2]
  apparent KD of MS2 coat protein: 464 nM

## AAAAAUGCAGGAUAUACGUACAUGUCAAAAGACGUGAAGGGACAUGAGGAUCACCCAUGUAGAAGGGUAAAGAA [JL Neck Breaker 15]
MS2 coat protein [1]
  apparent KD of MS2 coat protein: 237 nM
MS2 coat protein [2]
  apparent KD of MS2 coat protein: 59.8 nM

## UUUAUGUGAGGAUAUCAGUAGUAAAAAAAUAAAAUUACUACUGAGAAGGCACAUGAGGAUCACCCAUGUGUCUC [EX4 350: Super Stable 50]
MS2 coat protein [1]
  apparent KD of MS2 coat protein: 17.5 nM
MS2 coat protein [2]
  apparent KD of MS2 coat protein: 15 nM

## AAGAAGUGAGGAUAUCGAAGACUGUCGAAAAGACAGUCGAACGAGAAGGCACAUGAGGAUCACCCAUGUGAGAA [Marsurpial 65% 1]
MS2 coat protein [1]
  apparent KD of MS2 coat protein: 31 nM
MS2 coat protein [2]
  apparent KD of MS2 coat protein: 55.6 nM

## ACCUUACAUGAGGAUCACCCAUGUUAGGAUAUCUCGCUUUCGCAAUCACAGCGCAAGCAGAGAAGGGACACGGG [Esceari]
MS2 coat protein [1]
  apparent KD of MS2 coat protein: 28.3 nM
MS2 coat protein [2]
  apparent KD of MS2 coat protein: 66.6 nM

## AAAAAACAUGAGGAUCACCCAUGUAAGGAUAUCGUGCAGAAAAAAAAAAAAAACUGCACGAGAAGGUACUUGGA [Brourd - Exclusion 1 - Sub 3]
MS2 coat protein [1]
  apparent KD of MS2 coat protein: 43.1 nM
MS2 coat protein [2]
  apparent KD of MS2 coat protein: 87.9 nM

## GAAAAACAUGAGGAUCACCCAUGUCAGGAUAUCCAAAUAAAAAUAAAAUAAAAUAAAAGGAGAAGGGACAAAAG [Mat - Same state - Mayanna Mod - D101]
MS2 coat protein [1]
  apparent KD of MS2 coat protein: 42.4 nM
MS2 coat protein [2]
  apparent KD of MS2 coat protein: 40 nM

## GAAAAGGUAGGAUAUACGAAAAAAAAGGGUAAAAAAUAAAAACAUGAGGAUCACCCAUGUAGAAGGACCAAAAG [Mat - Exclusion 2 - Tesla mod - D40]
MS2 coat protein [1]
  apparent KD of MS2 coat protein: 28.8 nM
MS2 coat protein [2]
  apparent KD of MS2 coat protein: 55.3 nM

## AGAGGACAUGAGGAUCACCCAUGUGAGGAUAUGCAAAACUAAGGACAAGAUCGGUAUAGCAGAAGGCACGUAGU [JR_EXc001_Sub808]
MS2 coat protein [1]
  apparent KD of MS2 coat protein: 46.7 nM
MS2 coat protein [2]
  apparent KD of MS2 coat protein: 78.2 nM

## GUAGAGUGAGGAUAUGAAUAAAAGAAGAGAAAGAGAAAGCAUCAGAAGGCACAUGAGGAUCACCCAUGUAUGAA [JR_Exc004_Sub1225]
MS2 coat protein [1]
  apparent KD of MS2 coat protein: 29.2 nM
MS2 coat protein [2]
  apparent KD of MS2 coat protein: 25.3 nM

## CAGGUACGAGGAUAUACAUAGAUACAGACACAUGUUCAAGUACAUGAGGAUCACCCAUGUAGAAGGCGUAUAUG [Mat - Same state - Mayanna Mod - D108]
MS2 coat protein [1]
  apparent KD of MS2 coat protein: 47.6 nM
MS2 coat protein [2]
  apparent KD of MS2 coat protein: 88.5 nM

Source: the supplement of paper PMC9170038
